In patent US20160237160A1, “ANTI-TWEAKR ANTIBODIES AND USES THEREOF” (BAYER PHARMA AKTIENGESELLSCHAFT, priority 2013, published 2016):
Substitutions are numbered along the chain they refer to. Each block holds one molecule with its values, some of them ahead of it.

What was measured:
[1] = biological target: T1, TWEAKR-Fc mutein M50A (TPP-1988) (Homo sapiens, UniProt Q9NP84, M50A); test: ELISA mutein binding; conditions: coating 62 ng/ml; biotinylated IgG from 100 nM; read-out: IC50 of antibody binding, M50A
T1 construct: the full ectodomain (amino acids 28-80) with the following single amino acid substitutions; made in house
Description: (§1) Therefore, the full ectodomain (amino acids 28-80) with the following single amino acid substitutions were expressed and purified as Fc fusion proteins: T33Q; S40R; W42A; M50A; R56P; H60K; L65Q.
(§2) To collect dose-response data, the different TWEAKR-Fc muteins were coated with a low concentration (62 ng/ml) in a 384-well Maxisorb ELISA plate and a serial 2fold dilution of biotinylated IgG starting with a concentration of 100 nM was used as soluble binding partner. Detection was done with Streptavidin-HRP and Amplex Red.
(§3) IgGs were biotinylated using an approximately 2-fold molar excess of biotin-LC-NHS (Pierce; Cat. No. 21347) according to manufacturer's instructions and desalted using Zeba desalting columns (Pierce; Cat. No. 89889). The dose-response data were fitted and IC50s determined.

[2] = biological target: T2, TWEAKR-Fc mutein H60K (TPP-1989) (Homo sapiens, UniProt Q9NP84, H60K); test: ELISA mutein binding; conditions: coating 62 ng/ml; biotinylated IgG from 100 nM; read-out: IC50 of antibody binding, H60K
T2 construct: the full ectodomain (amino acids 28-80) with the following single amino acid substitutions; made in house
Description: as §1, §2, §3

[3] = biological target: T3, TWEAKR-Fc WT (TPP-599) (Homo sapiens, UniProt Q9NP84); test: ELISA mutein binding; conditions: coating 62 ng/ml; biotinylated IgG from 100 nM; read-out: IC50 of antibody binding, WT
T3 construct: TPP-599; HUMAN-TNFRSF12Aaa28-80-hIgG1-Fc; 138; made in house
Description: as §1, §2, §3

[4] = biological target: T4, TWEAKR-Fc mutein R56P (TPP-2683) (Homo sapiens, UniProt Q9NP84, R56P); test: ELISA mutein binding; conditions: coating 62 ng/ml; biotinylated IgG from 100 nM; read-out: IC50 of antibody binding, R56P
T4 construct: the full ectodomain (amino acids 28-80) with the following single amino acid substitutions; made in house
Description: as §1, §2, §3

[5] = biological target: T5, TWEAKR-Fc mutein W42A (TPP-1985) (Homo sapiens, UniProt Q9NP84, W42A); test: ELISA mutein binding; conditions: coating 62 ng/ml; biotinylated IgG from 100 nM; read-out: IC50 of antibody binding, W42A
T5 construct: the full ectodomain (amino acids 28-80) with the following single amino acid substitutions; made in house
Description: as §1, §2, §3

[6] = biological target: T6, TWEAKR-Fc mutein T33Q (TPP-1986) (Homo sapiens, UniProt Q9NP84, T33Q); test: ELISA mutein binding; conditions: coating 62 ng/ml; biotinylated IgG from 100 nM; read-out: IC50 of antibody binding, T33Q
T6 construct: the full ectodomain (amino acids 28-80) with the following single amino acid substitutions; made in house
Description: as §1, §2, §3

[7] = biological target: T7, TWEAKR-Fc mutein S40R (TPP-1987) (Homo sapiens, UniProt Q9NP84, S40R); test: ELISA mutein binding; conditions: coating 62 ng/ml; biotinylated IgG from 100 nM; read-out: IC50 of antibody binding, S40R
T7 construct: the full ectodomain (amino acids 28-80) with the following single amino acid substitutions; made in house
Description: as §1, §2, §3

[8] = biological target: T8, TWEAKR-Fc mutein L65Q (TPP-1990) (Homo sapiens, UniProt Q9NP84, L65Q); test: ELISA mutein binding; conditions: coating 62 ng/ml; biotinylated IgG from 100 nM; read-out: IC50 of antibody binding, L65Q
T8 construct: the full ectodomain (amino acids 28-80) with the following single amino acid substitutions; made in house
Description: as §1, §2, §3

[9] = biological target: TWEAKR (Homo sapiens, UniProt Q9NP84); conditions: published data; read-out: KD / binding affinity to TWEAKR (published); cited from earlier work
[10] = biological target: T9, TWEAKR protein (TPP-2305) (Homo sapiens, UniProt Q9NP84); test: Biacore monovalent KD with TWEAKR protein; format: binding; conditions: for ka / kd: first order 1:1 binding model
T9 construct: TPP-2305; hTNFRSF12Aaa28-80; Human; 30R-AT080; 168; purchased Fitzgerald Inc 30R-AT080
Description: Binding affinities of anti-TWEAKR antibodies were determined by surface plasmon resonance analysis on a Biacore T100 instrument (GE Healthcare Biacore, Inc.). Antibodies were immobilized onto a CM5 sensor chip through an indirect capturing reagent, anti-human IgG(Fc). Reagents from the “Human Antibody Capture Kit” (BR-1008-39, GE Healthcare Biacore, Inc.) were used as described by the manufacturer. Anti-TWEAKR antibodies were injected at a concentration of 10 μg/ml at 10 μl/min for 10 sec.
Sensorgrams were generated after in-line reference cell correction followed by buffer sample subtraction. The dissociation equilibrium constant (KD) was calculated based on the ratio of association (kon) and dissociation rated (koff) constants, obtained by fitting sensorgrams with a first order 1:1 binding model.

- IC50 [1]: 0.001 to 0.15 nM
- IC50 [2]: 0.001 to 0.15 nM
- IC50 [3]: 0.001 to 0.15 nM
- IC50 [4]: > 50 nM
- IC50 [5]: > 50 nM
- IC50 [6]: 0.001 to 0.15 nM
- IC50 [7]: 0.001 to 0.15 nM
- IC50 [8]: 0.001 to 0.15 nM
- ka [10]: 1.64e+07 M⁻¹ s⁻¹
- kd [10]: 0.0285 s⁻¹
B1: 18.3.3(TPP-2193): reference anti-TWEAKR antibody, murine IgG2a, from WO2009/020933; SEQ ID NO 129/130 (protein)
light: DIVLTQSPASLAVSLGQRATISCKASQSVSTSTYSYMQWYQQRPGQSPKLLIKYASKLDSGVPARFSGSGSGTDFTLNIHPVEEEDTATYYCQHSWELPYTFGGGTRLEIKRADAAPTVSIFPPSSEQLTSGGASVVCFLNNFYPKDINVKWKIDGSERQNGVLNSWTDQDSKDSTYSMSSTLTLTKDEYERHNSYTCEATHKTSTSPIVKSFNRNEC
heavy: EVKLGESGGGLVQPGGSMKLSCVASGFPFTKYWMNWVRQSPEKGLEWVAEIRLKSDNYATHYAESAKGRFTISRDDSRSSVYLQMNNLRAEDTAIYYCSPTYADTMDYWGQGTSVTVSSAKTTAPSVYPLAPVCGDTTGSSVTLGCLVKGYFPEPVTLTWNSGSLSSGVHTFPAVLQSDLYTLSSSVTVTSSTWPSQSITCNVAHPASSTKVDKKIEPRGPTIKPCPPCKCPAPNLLGGPSVFIFPPKIKDVLMISLSPIVTCVVVDVSEDDPDVQISWFVNNVEVHTAQTQTHREDYNSTLRVVSALPIQHQDWMSGKEFKCKVNNKDLPAPIERTISKPKGSVRAPQVYVLPPPEEEMTKKQVTLTCMVTDFMPEDIYVEWTNNGKTELNYKNTEPVLDSDGSYFMYSKLRVEKKNWVERNSYSCSVVHEGLHNHHTTKSFSRTPG
modifications: Mus Musculus
- Kd [9]: 0.2 nM

- IC50 [1]: 0.001 to 0.15 nM
- IC50 [2]: 0.001 to 0.15 nM
- IC50 [3]: 0.001 to 0.15 nM
- IC50 [4]: > 50 nM
- IC50 [5]: > 50 nM
- IC50 [6]: 0.001 to 0.15 nM
- IC50 [7]: 0.001 to 0.15 nM
- IC50 [8]: 0.001 to 0.15 nM
- ka [10]: 3.84e+07 M⁻¹ s⁻¹
- kd [10]: 0.0324 s⁻¹
B2: 136.1(TPP-2194): reference anti-TWEAKR antibody, murine IgG2a, from WO2009/020933; SEQ ID NO 123/124 (protein)
light: B1 light with A12T, K24R, T33S, S47P, S56T, K57N, T87A, L98I, R107K
heavy: EVKLEESGGGLVQPGGSMKLSCVASGFTFNNYWMSWVRQSPEKGLEWLAEIRLKSDNYATHYAESVKGKFTISRDDSKSRLYLQMNNLRAENTGIYYCTGGFADYFDYWGQGTTLTVSSAKTTAPSVYPLAPVCGDTTGSSVTLGCLVKGYFPEPVTLTWNSGSLSSGVHTFPAVLQSDLYTLSSSVTVTSSTWPSQSITCNVAHPASSTKVDKKIEPRGPTIKPCPPCKCPAPNLLGGPSVFIFPPKIKDVLMISLSPIVTCVVVDVSEDDPDVQISWFVNNVEVHTAQTQTHREDYNSTLRVVSALPIQHQDWMSGKEFKCKVNNKDLPAPIERTISKPKGSVRAPQVYVLPPPEEEMTKKQVTLTCMVTDFMPEDIYVEWTNNGKTELNYKNTEPVLDSDGSYFMYSKLRVEKKNWVERNSYSCSVVHEGLHNHHTTKSFSRTPG
modifications: Mus Musculus
- Kd [9]: 0.7 nM

- ka [10]: 1.32e+06 M⁻¹ s⁻¹
- kd [10]: 0.000564 s⁻¹
- Kd ([10]; monovalent KD): 0.4 nM
B3: P2D3(TPP-2196): reference anti-TWEAKR antibody, murine IgG2a, from WO2009/140177; SEQ ID NO 131/132 (protein)
light: DIVLTQSPASLAVSLGQRATISCRASKSVSTSSYSYMHWYQQKPGQPPKLLIKYTSNLESGVPARFSGSGSGTDFILNIHPVEEEDAATYYCQHSRELPWTFGGGTKLEIKRADAAPTVSIFPPSSEQLTSGGASVVCFLNNFYPKDINVKWKIDGSERQNGVLNSWTDQDSKDSTYSMSSTLTLTKDEYERHNSYTCEATHKTSTSPIVKSFNRNEC
heavy: QVSLKESGPGILQPSQTLSLTCSFSGFSLSTSGMGVSWIRQPSGKGLEWLAHIYWDDDKRYNPSLKSRLTISKDTSRNQVFLKITSVDTADTATYYCARRGPDYYGYYPMDYWGQGTSVTVSAKTTAPSVYPLAPVCGDTTGSSVTLGCLVKGYFPEPVTLTWNSGSLSSGVHTFPAVLQSDLYTLSSSVTVTSSTWPSQSITCNVAHPASSTKVDKKIEPRGPTIKPCPPCKCPAPNLLGGPSVFIFPPKIKDVLMISLSPIVTCVVVDVSEDDPDVQISWFVNNVEVHTAQTQTHREDYNSTLRVVSALPIQHQDWMSGKEFKCKVNNKDLPAPIERTISKPKGSVRAPQVYVLPPPEEEMTKKQVTLTCMVTDFMPEDIYVEWTNNGKTELNYKNTEPVLDSDGSYFMYSKLRVEKKNWVERNSYSCSVVHEGLHNHHTTKSFSRTPG
modifications: Mus Musculus
